Results taken from patent publication US20090192048A1, “METHOD OF PRODUCING A […] AGENT FOR BINDING A LIGAND” (priority 2005, published 2009).
Ends that are not written are not given here.

Legend:
Assay type in all cases: physicochemical
[1] = Retention of peptides on Costar polypropylene V-bottom wells; details: 400V scan; for Untreated fluorescence: unwashed; for Retained fluorescence: washed 15 minutes in 1 M NaCl in 10 mM tris-HCl (pH 8.0)
Method: (§1) The retention of peptides 2DOS-1 to 2DOS-16 (see above) on polypropylene and polystyrene surfaces was compared:
(§2) 5 mM tris-HCl (pH 8.0) in 75% (v/v) aqueous acetonitrile was used as the solvent for the peptides and for TAMRA.
(§3) 20 μl aliquots of 5 μM peptides 2DOS-1 to 2DOS-16 and 5 μM TAMRA were pipetted into the wells of a Costar V-bottomed polypropylene microtitre plate, a Greiner V-bottomed polypropylene microtitre plate, and a Greiner V-bottomed polystyrene microtitre plate according to the scheme shown in FIG. 26:
(§4) The peptide samples were allowed to evaporate to dryness in the dark.
(§5) The peptide samples in the top two rows of the microtitre plates were then incubated for 15 minutes at room temperature in 250 μl of 1 M NaCl in 10 mM tris-HCl (pH 8.0).
(§6) After incubation, the wash buffer was pipetted up and down eight times in the well before removing the supernatant.
(§7) The washed and untreated peptide samples were then resuspended in 50 μl of 10 mM tris-HCl (pH 8.0) in 50% (v/v) aqueous acetonitrile.
(§8) The microtitre plates were imaged at 200 μm resolution on a Typhoon Trio Plus variable mode imager (Amersham Biosciences) with the green (532 nm) laser and the 580 BP 30 filter at the PMT voltages indicated below and at normal sensitivity. The scan height was set at +3 mm and the sample was pressed during scanning.
(§9) The fluorescence images were analysed using ImageQuant TL v2003.03 (Amersham Biosciences).

[2] = Retention of peptides on Greiner polypropylene V-bottom wells; details: 400V scan; for Untreated fluorescence: unwashed; for Retained fluorescence: washed 15 minutes in 1 M NaCl in 10 mM tris-HCl (pH 8.0)
Method: as §1, §2, §3, §4, §5, §6, §7, §8, §9

[3] = Retention of peptides in V-bottomed polypropylene wells; details: V-bottom wells, 500V scan; for Untreated fluorescence: unwashed; for Retained fluorescence: washed 15 minutes in 1 M NaCl in 10 mM tris-HCl (pH 8.0)
Method: (§10) The retention of peptides 2DOS-1 to 2DOS-16 (see above) on polypropylene wells of different geometries was investigated:
(§11) 10 mM tris-HCl (pH 8.0) in 50% (v/v) aqueous acetonitrile was used as the solvent for the peptides and for TAMRA.
(§12) 1 μl aliquots of 10 μM peptides 2DOS-1 to 2DOS-16 and 10 μM TAMRA were pipetted into the wells of a Costar V-bottomed polypropylene microtitre plate and a Greiner flat-bottomed polypropylene microtitre plate according to the following scheme as shown in FIG. 22:
as §4
(§13) The peptide samples in the top two rows of the microtitre plates were then incubated for 15′ minutes at room temperature in 250 μl of 1 M NaCl in 10 mM tris-HCl (pH 8.0).
as §6, §7
as §8, with “the platen” for “+3 mm”, “during,” for “during”
as §9

[4] = Retention of peptides 2DOS-1 to 2DOS-16 on a hydrophobic surface (polypropylene microtitre plate wells), water wash; details: 400V scan; for Initial fluorescence (×10^3): 100 μl of 10 μM peptide before drying and washing; for Recovered fluorescence (×10^3): dried, washed ten times with 250 μl water, resuspended
Method: The retention of peptides 2DOS-1 to 2DOS-16 on a hydrophobic surface (the wells of a polypropylene microtitre plate) was then investigated.
as §11
100 μl aliquots of 10 μM peptides 2DOS-1 to 2DOS-16 and 10 μM TAMRA were placed in the wells of a Costar microtitre plate as shown in FIG. 13:
as §8, with “plate was” for “plates were”
The peptides were allowed to evaporate to dryness overnight in the dark and the microtitre plate was again scanned as described above.
The wells were then washed ten times with 250 μl of water.
The residual surface-bound peptides were finally resuspended in 100 μl of 10 mM tris-HCl (pH 8.0) in 50% (v/v) aqueous acetonitrile and the microtitre plate was again scanned as described above.
as §9
Quantification data (using the data from the 400V scan) is given in Table 2 and shown graphically in FIG. 15.

[5] = Retention of peptides on Greiner polystyrene V-bottom wells; details: 400V scan; for Untreated fluorescence: unwashed; for Retained fluorescence: washed 15 minutes in 1 M NaCl in 10 mM tris-HCl (pH 8.0)
Method: as §1, §2, §3, §4, §5, §6, §7, §8, §9

[6] = Retention of peptides in flat-bottomed polypropylene wells; details: flat-bottom wells, 500V scan; for Untreated fluorescence: unwashed; for Retained fluorescence: washed 15 minutes in 1 M NaCl in 10 mM tris-HCl (pH 8.0)
Method: as §10, §11, §12, §4, §13, §6, §7
as §8, with “the platen” for “+3 mm”, “during,” for “during”
as §9

Substance	Percent retention [1]	Untreated fluorescence [1]	Retained fluorescence [1]	Percent retention [2]	Untreated fluorescence [2]	Retained fluorescence [2]	Percent retention [3]	Untreated fluorescence [3]	Retained fluorescence [3]	Initial fluorescence (×10^3) [4]	Recovered fluorescence (×10^3) [4]	Percent retention [5]	Untreated fluorescence [5]	Retained fluorescence [5]	Percent retention [6]	Untreated fluorescence [6]	Retained fluorescence [6]
N-TAMRA-Norleu- Asp-Norleu-Ala- Norleu-Ser-Norleu- Lys-Norleu-C [Peptide 2DOS-1]	52%	6,458,364	3,366,403	37%	3,328,960	1,235,460	70%	9,550,835	6,641,271	33,015 ×10^3	7,459 ×10^3	35%	640,145	225,686	14%	14,949,396	2,157,124
N-TAMRA-Phe-Asp- Phe-Asp-Phe-Asp- Phe-Asp-Phe-C ({TAMRA}-FDFDFDFDF) [Peptide 2DOS-10]	24%	6,043,214	1,439,375	22%	3,043,118	654,623	33%	8,445,090	2,773,876	28,479 ×10^3	2,884 ×10^3	17%	602,771	100,265	39%	13,661,609	5,353,630
N-TAMRA-Ser-Asp- Ser-Ala-Ser-Ser- Ser-Lys-Ser-C ({TAMRA}-SDSASSSKS) [Peptide 2DOS-3]	12%	5,660,618	673,940	10%	3,583,352	342,889	22%	9,020,171	1,951,694	32,913 ×10^3	8 ×10^3	5%	744,747	37,388	20%	14,152,875	2,836,015
N-TAMRA-Ser-Asp- Ser-Asp-Ser-Asp- Ser-Asp-Ser-C ({TAMRA}-SDSDSDSDS) [Peptide 2DOS-11]	2%	5,327,435	102,040	2%	3,510,896	86,818	2%	9,705,293	192,272	26,860 ×10^3	0 ×10^3	1%	675,269	7,365	3%	13,960,552	476,318
